In paper doi:10.1101/2022.09.01.506260:

Columns and labels:
[1] = target: PEAK3^tandem-pS69 peptide pre-complexed with 14-3-3ɣ (human); assay: ITC
[2] = target: PEAK2^IDR1 (N-terminally truncated PEAK2, residues 802-1406) (human) (UniProt Q86YV5); assay: SEC-MALS
[3] = target: PEAK3^tandem-pS69 phosphopeptide (residues 54-74) (human); assay: ITC
[4] = target: full length recombinant PEAK3 (PEAK3^FL) from insect cells (human) (UniProt Q6ZS72); assay: SEC-MALS
Chain of full length recombinant PEAK3 (PEAK3^FL) from insect cells (human) (Q6ZS72 whole entry): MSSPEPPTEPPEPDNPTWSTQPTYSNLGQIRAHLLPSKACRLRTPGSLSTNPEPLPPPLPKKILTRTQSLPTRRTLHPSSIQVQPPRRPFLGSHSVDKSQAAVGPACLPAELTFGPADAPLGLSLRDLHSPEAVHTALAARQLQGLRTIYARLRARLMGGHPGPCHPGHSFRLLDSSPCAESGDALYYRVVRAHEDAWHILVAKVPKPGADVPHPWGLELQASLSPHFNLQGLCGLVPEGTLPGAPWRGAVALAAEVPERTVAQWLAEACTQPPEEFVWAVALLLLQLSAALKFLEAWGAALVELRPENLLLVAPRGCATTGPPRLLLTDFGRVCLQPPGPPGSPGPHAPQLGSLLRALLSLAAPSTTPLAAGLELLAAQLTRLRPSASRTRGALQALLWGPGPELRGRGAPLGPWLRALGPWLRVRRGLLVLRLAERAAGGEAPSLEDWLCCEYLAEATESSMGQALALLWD

Chain of PEAK2^IDR1 (N-terminally truncated PEAK2, residues 802-1406) (human) (Q86YV5 802-1406): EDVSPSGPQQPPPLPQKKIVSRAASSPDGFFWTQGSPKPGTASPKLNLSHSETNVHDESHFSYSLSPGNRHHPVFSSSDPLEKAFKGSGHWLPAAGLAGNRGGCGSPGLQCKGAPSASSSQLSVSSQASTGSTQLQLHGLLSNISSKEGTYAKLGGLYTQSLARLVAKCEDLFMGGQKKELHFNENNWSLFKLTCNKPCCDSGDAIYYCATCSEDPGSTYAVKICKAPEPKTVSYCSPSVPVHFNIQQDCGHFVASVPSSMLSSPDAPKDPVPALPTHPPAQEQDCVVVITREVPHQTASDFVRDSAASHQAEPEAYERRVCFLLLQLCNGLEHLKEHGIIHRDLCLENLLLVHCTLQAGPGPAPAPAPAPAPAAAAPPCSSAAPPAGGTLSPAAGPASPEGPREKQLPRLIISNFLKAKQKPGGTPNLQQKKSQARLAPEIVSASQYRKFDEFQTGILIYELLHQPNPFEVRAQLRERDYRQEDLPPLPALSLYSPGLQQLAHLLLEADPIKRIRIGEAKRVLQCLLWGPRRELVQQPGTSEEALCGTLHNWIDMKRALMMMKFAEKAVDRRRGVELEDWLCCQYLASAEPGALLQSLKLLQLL
Chain of CrkII NSH3 domain (CrkII^NSH3) (P46108 134-191): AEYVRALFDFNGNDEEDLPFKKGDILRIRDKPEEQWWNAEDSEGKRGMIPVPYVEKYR

“CrkII NSH3 domain (CrkII^NSH3) (from UniProt P46108-1 134-191) (domain or fragment)” gave a Kd [1] of 3600 nM.
In the case of “full length CrkII, dimer (CrkII^FL dimer) (from UniProt P46108-1 1-304) (natural protein)”, the stoichiometry N [2] is reported as 1 ratio (2:2).
For human 14-3-3γ (natural protein), the Kd [3] was 130 nM.
For “insect cell derived 14-3-3ε,ζ heterodimer (complex)”, the stoichiometry N (ratio (dimer:dimer)) [4] was 1.
